Data from patent EP4775595A1.

Key:
[1] = biological target: hIGF-1R-ECD-avi-his (human IGF-1R extracellular region) (human) (UniProt P08069); experiment: SPR (Biacore T200), antigen captured by anti-His antibody on CM5 chip, antibody as analyte
[2] = biological target: human IGF-1R on human non-small cell lung cancer cells (A549) (human) (UniProt P08069); experiment: cell-based or functional assay
Sequence of human IGF-1R on human non-small cell lung cancer cells (A549) (human) (P08069 31-1367): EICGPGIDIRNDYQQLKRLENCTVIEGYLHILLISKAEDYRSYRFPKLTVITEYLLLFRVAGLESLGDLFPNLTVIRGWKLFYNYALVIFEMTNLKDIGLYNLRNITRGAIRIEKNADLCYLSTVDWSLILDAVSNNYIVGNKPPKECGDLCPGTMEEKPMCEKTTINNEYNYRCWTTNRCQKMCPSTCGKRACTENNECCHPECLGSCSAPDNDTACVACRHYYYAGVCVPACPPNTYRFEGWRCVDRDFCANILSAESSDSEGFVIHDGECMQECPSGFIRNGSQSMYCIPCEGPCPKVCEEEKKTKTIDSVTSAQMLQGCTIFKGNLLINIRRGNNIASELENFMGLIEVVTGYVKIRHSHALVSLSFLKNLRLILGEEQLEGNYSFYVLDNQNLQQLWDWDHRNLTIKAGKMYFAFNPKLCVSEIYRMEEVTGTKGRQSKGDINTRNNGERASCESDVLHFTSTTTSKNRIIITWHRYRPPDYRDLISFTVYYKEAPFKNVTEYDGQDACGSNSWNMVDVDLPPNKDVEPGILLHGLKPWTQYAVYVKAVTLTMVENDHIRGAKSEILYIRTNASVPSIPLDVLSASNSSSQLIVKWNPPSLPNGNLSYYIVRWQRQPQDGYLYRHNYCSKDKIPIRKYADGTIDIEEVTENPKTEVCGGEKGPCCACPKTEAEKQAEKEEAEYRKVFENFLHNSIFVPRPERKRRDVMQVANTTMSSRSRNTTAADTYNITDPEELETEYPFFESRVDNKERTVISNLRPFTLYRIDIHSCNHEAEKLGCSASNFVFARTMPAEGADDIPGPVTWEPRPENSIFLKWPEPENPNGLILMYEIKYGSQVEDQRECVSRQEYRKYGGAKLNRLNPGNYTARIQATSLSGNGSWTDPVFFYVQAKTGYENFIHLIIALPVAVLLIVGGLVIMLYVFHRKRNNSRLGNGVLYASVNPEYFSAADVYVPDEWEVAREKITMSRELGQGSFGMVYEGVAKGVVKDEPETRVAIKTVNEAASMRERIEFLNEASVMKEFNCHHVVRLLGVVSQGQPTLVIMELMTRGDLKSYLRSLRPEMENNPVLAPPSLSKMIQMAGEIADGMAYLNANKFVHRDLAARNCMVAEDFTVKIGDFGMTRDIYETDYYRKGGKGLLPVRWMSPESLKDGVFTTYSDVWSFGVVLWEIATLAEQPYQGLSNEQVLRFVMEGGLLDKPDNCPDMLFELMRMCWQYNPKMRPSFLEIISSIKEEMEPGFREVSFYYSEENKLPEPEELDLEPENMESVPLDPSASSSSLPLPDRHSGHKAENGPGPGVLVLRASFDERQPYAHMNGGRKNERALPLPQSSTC

Sequence of hIGF-1R-ECD-avi-his (human IGF-1R extracellular region) (human) (P08069 other isoform, or with tags, fused parts or gaps limits assumed): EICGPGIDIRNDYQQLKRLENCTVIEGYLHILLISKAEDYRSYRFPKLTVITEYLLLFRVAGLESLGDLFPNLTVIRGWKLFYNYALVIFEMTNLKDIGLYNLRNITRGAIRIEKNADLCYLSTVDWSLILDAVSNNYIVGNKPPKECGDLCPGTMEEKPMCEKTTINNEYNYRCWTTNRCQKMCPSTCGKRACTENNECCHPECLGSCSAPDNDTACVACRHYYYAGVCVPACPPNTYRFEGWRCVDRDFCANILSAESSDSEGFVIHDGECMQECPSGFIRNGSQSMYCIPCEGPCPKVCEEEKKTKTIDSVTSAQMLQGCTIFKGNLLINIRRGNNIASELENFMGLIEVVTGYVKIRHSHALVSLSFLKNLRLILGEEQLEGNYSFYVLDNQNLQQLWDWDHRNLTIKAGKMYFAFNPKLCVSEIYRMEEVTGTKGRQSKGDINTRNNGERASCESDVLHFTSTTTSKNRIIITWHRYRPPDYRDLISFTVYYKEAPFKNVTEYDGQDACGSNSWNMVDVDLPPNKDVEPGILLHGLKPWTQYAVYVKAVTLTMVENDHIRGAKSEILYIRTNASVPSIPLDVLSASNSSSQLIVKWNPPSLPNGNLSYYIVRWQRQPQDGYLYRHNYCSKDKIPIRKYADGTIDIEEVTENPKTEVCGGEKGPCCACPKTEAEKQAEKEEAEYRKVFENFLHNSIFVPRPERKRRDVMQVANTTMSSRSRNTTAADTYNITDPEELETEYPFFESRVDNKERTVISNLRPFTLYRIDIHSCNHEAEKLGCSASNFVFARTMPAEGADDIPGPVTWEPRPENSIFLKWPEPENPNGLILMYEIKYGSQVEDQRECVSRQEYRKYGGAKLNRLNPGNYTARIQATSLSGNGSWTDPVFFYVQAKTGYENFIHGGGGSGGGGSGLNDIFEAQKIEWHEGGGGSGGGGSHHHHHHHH

| Kd [1] [pM] | koff [1] [s⁻¹] | kon [1] [M⁻¹ s⁻¹] | IC50 (nM), inhibition of IGF1-induced pAKT signaling in A549 cells [2] [nM] | Substance |
| --- | --- | --- | --- | --- |
| 267 | 0.00109 | 4.08e+06 | – | Tepezza (Horizon, US2022356257) (antibody) |
| 17.5 | 1.47e-05 | 839000 | 0.716 | VRDN-001 (Viridian, WO2023019171) (antibody) |
